Measured values as given in paper PMC3140970, “The Eps8/IRSp53/VASP Network Differentially Controls Actin Capping and Bundling in Filopodia Formation” (PLoS Computational Biology, 2011).

Biological target: T1, His-IRSp53 (UniProt Q9UQB8 1-552)
T1 sequence (looked up): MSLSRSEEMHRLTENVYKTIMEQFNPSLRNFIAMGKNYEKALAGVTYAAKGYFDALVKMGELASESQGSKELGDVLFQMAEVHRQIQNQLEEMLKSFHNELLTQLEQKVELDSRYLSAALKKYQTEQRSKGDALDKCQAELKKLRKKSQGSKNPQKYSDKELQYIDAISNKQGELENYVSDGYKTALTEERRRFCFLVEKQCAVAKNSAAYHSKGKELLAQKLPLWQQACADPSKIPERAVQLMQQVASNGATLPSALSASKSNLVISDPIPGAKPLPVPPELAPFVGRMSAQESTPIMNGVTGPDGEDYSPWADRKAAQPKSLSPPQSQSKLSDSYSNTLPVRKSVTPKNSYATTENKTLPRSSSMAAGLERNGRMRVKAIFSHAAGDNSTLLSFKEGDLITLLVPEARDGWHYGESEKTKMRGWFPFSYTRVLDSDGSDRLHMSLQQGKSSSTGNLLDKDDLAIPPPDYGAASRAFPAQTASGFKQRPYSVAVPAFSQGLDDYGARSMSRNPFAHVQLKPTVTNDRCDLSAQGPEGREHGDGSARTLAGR
Experiment: far-Western, overlay or dot blot; 10 pmoles of His-IRSp53, GST-IRSp53-SH3 or BSA spotted onto nitrocellulose, incubated with increasing concentrations of purified VASP; anti-VASP immunoblot; fraction bound against total VASP; apparent dissociation constant
Conditions: both partners purified

B1: VASP, recombinant, cleaved from GST (natural protein, human, UniProt P50552 1-380, looked up)
chain: MSETVICSSRATVMLYDDGNKRWLPAGTGPQAFSRVQIYHNPTANSFRVVGRKMQPDQQVVINCAIVRGVKYNQATPNFHQWRDARQVWGLNFGSKEDAAQFAAGMASALEALEGGGPPPPPALPTWSVPNGPSPEEVEQQKRQQPGPSEHIERRVSNAGGPPAPPAGGPPPPPGPPPPPGPPPPPGLPPSGVPAAAHGAGGGPPPAPPLPAAQGPGGGGAGAPGLAAAIAGAKLRKVSKQEEASGGPTAPKAESGRSGGGGLMEEMNAMLARRRKATQVGEKTPKDESANQEEPEARVPAQSESVRRPWEKNSTTLPRMKSSSSVTTSETQPCTPSSSDYSDLQRVKQELLEEVKKELQKVKEEIIEAFVQELRKRGSP
notes: also called purified VASP; recombinant human VASP
- Kd: 12.5 nM
